Results from article doi:10.1101/2020.09.30.318261 (bioRxiv, 2020).

How the values were obtained:
Experiment in all cases: ELISA
[1] = target: SARS-CoV-2 spike S1B domain (receptor binding domain) (SARS-CoV-2 Wuhan-Hu-1, UniProt P0DTC2)
[2] = target: WIV16 spike receptor binding domain (S1B domain) (SARS-like coronavirus WIV16, strain)
[3] = target: SARS-CoV spike S1B domain (receptor binding domain) (SARS-CoV Urbani, UniProt P59594)

Measured: binding result

B1: human monoclonal antibody 47D11 (antibody, V domains shown)
VH: QVQLQESGPGLVKPSETLSLTCSVSGGSISSHYWSWIRQPPGKGLEWIGYIYYSGSTNHNPSLKSRVTISVDTSKNQFSLKLSSVTAADTAVYYCARGVLLWFGEPIFEIWGQGTMVTVSS
VL: EIVMTQSPATLSVSPGERATLSCRASQSVSSSLAWYQQKPGQAPRLLIYGASTRAPGIPARFSGSGSGTEFTLTISSLQSEDFAVYYCQQYNNWPLTFGGGTKVEI
binds: all assays above
